Experimental data from PMC3830487, “A DELLA gene, RhGAI1, is a direct target of EIN3 and mediates ethylene-regulated rose petal cell expansion via repressing the expression of RhCesA2”.

Legend:
[1] = target: T1, RhGAI1 (C-terminal fragment with binding domain) (rose, UniProt M9XGL2 238-618); assay: competition; mutated competitor vs biotin-labelled N3; EMSA per Wang et al. 2011, LightShift chemiluminescent kit (Pierce); 1 ug recombinant protein, 2 nM biotin-labelled probe; buffer, salt, pH and temperature not; conditions: tags: GST (pGEX-2T)
T1 sequence: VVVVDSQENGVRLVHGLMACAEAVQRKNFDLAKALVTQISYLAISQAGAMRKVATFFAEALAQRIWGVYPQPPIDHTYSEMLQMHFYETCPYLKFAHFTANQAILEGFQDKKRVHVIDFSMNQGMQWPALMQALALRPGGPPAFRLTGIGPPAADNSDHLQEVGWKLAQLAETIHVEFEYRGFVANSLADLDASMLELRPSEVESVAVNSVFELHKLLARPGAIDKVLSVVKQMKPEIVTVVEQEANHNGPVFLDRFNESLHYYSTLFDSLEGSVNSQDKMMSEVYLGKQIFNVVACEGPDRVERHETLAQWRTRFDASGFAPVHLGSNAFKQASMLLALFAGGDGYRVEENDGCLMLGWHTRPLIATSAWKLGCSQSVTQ

[2] = target: T2, RhEIN3-3 (N-terminal fragment with DNA-binding domain) (rose, UniProt M9XFM8 141-356); assay: competition; mutated competitor vs biotin-labelled N1; EMSA per Wang et al. 2011, LightShift chemiluminescent kit (Pierce); 1 ug recombinant protein, 2 nM biotin-labelled probe; buffer, salt, pH and temperature not; conditions: tags: GST (pGEX-2T), chain copies: 2
T2 sequence: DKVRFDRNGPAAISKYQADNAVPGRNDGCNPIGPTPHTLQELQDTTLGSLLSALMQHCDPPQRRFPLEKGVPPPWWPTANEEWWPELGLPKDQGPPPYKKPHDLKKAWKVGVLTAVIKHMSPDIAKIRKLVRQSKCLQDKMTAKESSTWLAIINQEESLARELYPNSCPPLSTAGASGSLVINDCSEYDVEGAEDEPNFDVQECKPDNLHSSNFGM

[3] = target: T1, RhGAI1 (C-terminal fragment with …); assay: EMSA; competed by unlabelled probe; EMSA per Wang et al. 2011, LightShift chemiluminescent kit (Pierce); 1 ug recombinant protein, 2 nM biotin-labelled probe; buffer, salt, pH and temperature not; conditions: tags: GST (pGEX-2T), label: biotin, blunt
[4] = target: T2, RhEIN3-3 (N-terminal fragment with …); assay: as above; conditions: tags: GST (pGEX-2T), chain copies: 2, label: biotin, blunt

B1: proRhCesA2 mutated probe (dsDNA)
DNA 1: GCAGAGGGCTGACTCAGTCGGTGGAGATTT
DNA 2: AAATCTCCACCGACTGAGTCAGCCCTCTGC
Q: Does B1 bind [1]?
A: no binding

B2: proRhGAI1 mutated probe (dsDNA)
DNA 1: CAGTCACGTTTTATACTCAGTAAGAGGTATTAAAATTCTAGAG
DNA 2: CTCTAGAATTTTAATACCTCTTACTGAGTATAAAACGTGACTG
Q: Does B2 bind [2]?
A: no binding

B3: proRhCesA2 probe (dsDNA)
DNA 1: GCAGAGGGCTAATTTAGTCGGTGGAGAT
DNA 2: ATCTCCACCGACTAAATTAGCCCTCTGC
Q: Does B3 bind [3]?
A: binds

B4: proRhGAI1 probe (dsDNA)
DNA 1: CGTTTTATACTAATTCAAAGGTATTAA
DNA 2: TTAATACCTTTGAATTAGTATAAAACG
Q: Does B4 bind [4]?
A: binds
